This note sets out measurements from the supplement of paper PMC9170038.

The series concerns MS2 coat protein. The experiment in a line: apparent KD of MS2 coat protein; designed switch direction (-1 OFF switch, 1 ON switch): -1; higher = weaker reporter binding. The method in brief: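 The reported apparent KD is a per-design median over clusters, from curve fits of normalised cluster fluorescence. Protein titrations used SNAP-549-labelled MS2 coat protein, doubled from 0.7 or 1.5 nM to 3 µM, in Tris-HCl pH 7.5 buffer with KCl, MgCl2, BSA, DTT, tRNA and Tween-20, with no input, 200 uM small-molecule ligand, or an oligonucleotide input. The RNA switches were transcribed on Illumina chips by stalled E. coli RNA polymerase.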

[1] abbreviates: Eterna round: R95, input ligand: FMN 200 uM.
Setting [2] is: Eterna round: R95, input ligand: microRNA oligo, concentration not stated.
[3] abbreviates: Eterna round: R95, input ligand: none.
[4] abbreviates: input ligand: microRNA oligo, concentration not stated.

Take “GGUACUAACACGAAAGUGUUAGUACUAUAAGCUUGUGUUACAUGAGGAUCACCCAUGUCCUCAUAGGCUCGUCUUGU [JL-sv3-2.17 mat747 mod] (puzzle: Sensor v3, turn-off variant 2)”: the “apparent KD of MS2 coat protein” value runs as follows: under setting [1], 105 nM; under setting [2], 51 nM; under setting [3], 115 nM.

As for “ACGAUGACCGAAAGAUGUCAAAAGACAUGAGGAUCACCCAUGUAGGAUAUGGCUACGAAAAGUAGUCAGAAGGACAUGUCAUCA [Omei Exc(NG) 3 A] (Eterna round: R96, puzzle: Exclusion NG 3)”, the “apparent KD of MS2 coat protein” value was determined as 15.1 nM (input ligand: FMN 200 uM), 12.3 nM under setting [4] and 14.8 nM (input ligand: none).

On to “AGUAACUCAUGAGGAUAUCACAUGAGGAUCACCCAUGUAUAGCGCGCUAUGCUAGUCCUCGUAUAUGAGAAGGUAUGAUAAAUG [JL ViennaUCT Quve mod 3] (Eterna round: R96, puzzle: Exclusion NG 2)”, for which the “apparent KD of MS2 coat protein” value is, setting by setting: (input ligand: FMN 200 uM) 22 nM; under setting [4], 15.7 nM; (input ligand: none) 25.7 nM.

With “CCAAGCUUAUUCAUUAACCACAUGAGGAUCACCCAUGUAUAGGCAAUUAUGACUGGGCAAUGUGGUGCUCGUCUUAU [Sensor-V1 #28] (Eterna round: R97, puzzle: Sensor, turn-off variant 1)”, the “apparent KD of MS2 coat protein” value was 39.5 nM (input ligand: FMN 200 uM) and 41.3 nM (input ligand: none).

As to “ACUUAUAGAGGAUAUACAGAAUAUUACAUGAGGAUCACCCAUGUUCUUCAAUGUAUAUAUGUAGAAGGCUAAGGAA [JL-ex5-4.22 Malcolm mod] (Eterna round: R97, puzzle: Exclusion 5)”, the “apparent KD of MS2 coat protein” value is, setting by setting: (input ligand: FMN 200 uM) 252 nM; (input ligand: none) 88.8 nM.

For “UCUUCACAUGAGGAUCACCCAUGUCAGGAUAUAAGGUCUUGUCUACGUUGAAGGGACUUUAGAAGGGACACUUG [EX1 B.6] (Eterna round: R97, puzzle: Exclusion 1)”, the “apparent KD of MS2 coat protein” value runs as follows: (input ligand: FMN 200 uM) 107 nM; (input ligand: none) 36 nM.

As to “AGAUAGUUAGGAUAUACAUGAGGAUCACCCAUGUAGAAAAGUGGCUAAUGAGACUCCGGUAGAAGGAACAAAAU [Isanqurama] (puzzle: Exclusion 3)”, the “apparent KD of MS2 coat protein” value runs as follows: under setting [1], 41.7 nM; under setting [2], 20 nM; under setting [3], 27.7 nM.

Turning to “AUUAUGUUAGGAUAUGCUUAUGGUGGAUAGUCCAGUAUGGUGCAGAAGGGACAUGAGGAUCACCCAUGUGCUGA [EX4 #32] (Eterna round: R97, puzzle: Exclusion 4)”, the “apparent KD of MS2 coat protein” value is 50.9 nM (input ligand: FMN 200 uM) and 52.8 nM (input ligand: none).

On to “AGCGCAUGAGGAUAUACAUGAGGAUCACCCAUGUUCCAGUGAGCACUAGUGAGAGUCAGUAGAAGGUAUAGGGC [Cecete] (Eterna round: R97, puzzle: Exclusion 3)”, for which the “apparent KD of MS2 coat protein” value (input ligand: FMN 200 uM) was determined as 151 nM and the “apparent KD of MS2 coat protein” value (input ligand: none) was 172 nM.

Consider “GUCCUGAGCGUUAGGAUAUUCACAGUGGACUACUGGAAGAAGGGACAUGAGGAUCACCCAUGUUCGAUACUGGG [Eternabot (L1) Solution 64] (Eterna round: R97, puzzle: Brourd's mod of Exclusion 4)”, for which the “apparent KD of MS2 coat protein” value reads like this: (input ligand: FMN 200 uM) 72.2 nM; (input ligand: none) 47.2 nM.

For “UAUUUACAUGAGGAUCACCCAUGUCAGGAUAUGCGUCUAUCGUCGAAAGACGAUAGUCGCAGAAGGGACAAUAU [LRO-Excl01-22 mod derived from EliFisker 4.24] (Eterna round: R97, puzzle: Exclusion 1)”, the “apparent KD of MS2 coat protein” value runs as follows: (input ligand: FMN 200 uM) 100 nM; (input ligand: none) 48.9 nM.

As to “AAUGAUGAUGUGAGGAUAUACAUAGUUAGAAAGUAGUAGAAGGCACAUGAGGAUCACCCAUGUAGAUGUAAGGU [JR_BME4_Sub001] (puzzle: Brourd's mod of Exclusion 4)”, the “apparent KD of MS2 coat protein” value reads like this: under setting [1], 52.5 nM; under setting [2], 26.3 nM; under setting [3], 24.6 nM.

With “AAUUUGUGAGGAUAUCCAAUAUAUGACAUGAGGAUCACCCAUGUUUCCACUCGUACCUCCGGAGAAGGCACUGCAA [Ex5 #38] (Eterna round: R97, puzzle: Exclusion 5)”, the “apparent KD of MS2 coat protein” value runs as follows: (input ligand: FMN 200 uM) 21.4 nM; (input ligand: none) 23.6 nM.

In the case of “ACGAGCAGACGGAGAUCCAACAUGAGGAUCACCCAUGUCUGGAAAGCUUUUUGCUUGUCUUAUCCUCCUCUGUUAGC [Design #10] (Eterna round: R97, puzzle: Sensor, turn-off variant 1)”, the “apparent KD of MS2 coat protein” value runs as follows: (input ligand: FMN 200 uM) 12.4 nM; (input ligand: none) 11.9 nM.

For “AAAAUAAAGAUAGGAUAUGCAGUAUAGCAAGAUCCGGACAUGAGGAUCACCCAUGUACUUCGAAAGCAGAAGGAUCAAACAAAA [Zamale] (Eterna round: R96, puzzle: Exclusion NG 2)”, the “apparent KD of MS2 coat protein” value reads like this: (input ligand: FMN 200 uM) 30.3 nM; under setting [4], 30 nM; (input ligand: none) 26.6 nM.

On to “UGCUACGGAGGAUAUACAUGAGGAUCACCCAUGUGUGAGAUUUGGCCGAGAGGCCAGUGUAGAAGGCCGUAGCU [jl-ex3-4.19 jl mod] (Eterna round: R97, puzzle: Exclusion 3)”, for which the “apparent KD of MS2 coat protein” value (input ligand: FMN 200 uM) stood at 615 nM and the “apparent KD of MS2 coat protein” value (input ligand: none) was 193 nM.

As for “GAGAAGGUAGGAUAUACGAAUAAAUAGGGUAGGAAGAAGACACAUGAGGAUCACCCAUGUAGAAGGACCAAGAG [Mat - Exclusion 2 - Mod of my Tesla design - D36] (puzzle: Exclusion 2)”, the “apparent KD of MS2 coat protein” value reads like this: under setting [1], 29.3 nM; under setting [2], 14.6 nM; under setting [3], 17.8 nM.

Consider “UGUUGUCGCGUAGGAUAUUGUCAACAGGCAAUAGGAUAUGCGAAAGCAGAAGGAUCGCCAACAGGCGAGAAGGACGGGACAACU [pwkr exNG2 2xF7 2xFMN.5] (Eterna round: R96, puzzle: Exclusion NG 2)”, for which the “apparent KD of MS2 coat protein” value by setting is: (input ligand: FMN 200 uM) 142 nM; under setting [4], 913 nM; (input ligand: none) 1140 nM.

For the sequence “GGGCUGCGACGCAGCCCAACAAAACAUGAGGAUCACCCAUGUCAGGAUAUACCGAUGCAGCAUCUGUAGAAGGGACAGAUCCAA [Tiraonin] (Eterna round: R96, puzzle: Exclusion NG 3)”, the “apparent KD of MS2 coat protein” value under setting [4] is 61.9 nM.

For the sequence “GUUAAGGUAGGAUAUACGAUAAUAUAGGGUAGAGAUAUAACACAUGAGGAUCACCCAUGUAGAAGGACCAAUUG [Mat - Exclusion 2 - Mod of my Tesla design - D55] (puzzle: Exclusion 2)”, the “apparent KD of MS2 coat protein” value under setting [2] is 26.2 nM.

For the sequence “AGGUUGGCGUGAGGAUAUUGGAAAGGAAGUGUACAAGAAGGUACGGACCUAAAACAUGAGGAUCACCCAUGUGGUCCUUAUGCC [PowerStrip EXNG 1.26] (Eterna round: R96, puzzle: Exclusion NG 1)”, the “apparent KD of MS2 coat protein” value by setting is: (input ligand: FMN 200 uM) 14 nM; under setting [4], 11.2 nM; (input ligand: none) 19.6 nM.

For “AAGGGUGCCCUUAGAAAGACAUGAGGAUCACCCAUGUAGACUGAGGAUAUCCACUCCUAAGGACCGGAGAAGGCAGUGUAAUGC [Qubion] (Eterna round: R96, puzzle: Exclusion NG 3)”, the “apparent KD of MS2 coat protein” value came out at 16.9 nM (input ligand: FMN 200 uM), 13.8 nM under setting [4] and 18.2 nM (input ligand: none).

Consider “CCGAUCAGUGUCAGGAUAUCUACAGGACUGCCUCGAGAGAAGGGACAUGAGGAUCACCCAUGUACCCGGGCAAG [BmEX4 B.2] (Eterna round: R97, puzzle: Brourd's mod of Exclusion 4)”, for which the “apparent KD of MS2 coat protein” value by setting is: (input ligand: FMN 200 uM) 15 nM; (input ligand: none) 12.8 nM.

As for “ACAUUCUGAGGAUAUGUGCGCACUGACAUGAGGAUCACCCAUGUCCGAAUGUCCGAGACGACAGAAGGCAGUGAAU [Eternabot (L2) Solution 72] (Eterna round: R97, puzzle: Exclusion 5)”, the “apparent KD of MS2 coat protein” value (input ligand: FMN 200 uM) came out at 355 nM and the “apparent KD of MS2 coat protein” value (input ligand: none) was found to be 101 nM.

On to “CUGAUGUGAGGAUAUCUAAAAGAAACUGGGCAAAAUACCAGAGAGAAGGCACAUGAGGAUCACCCAUGUAACGA [Rabigeri] (puzzle: Exclusion 4)”, for which the “apparent KD of MS2 coat protein” value under setting [2] came out at 19.5 nM.

For “CGUCCUGUAGUGAGGAUAUUGUCUCGGAUACGAAACAAGAAGGCACAUGAGGAUCACCCAUGUAAUCAGGACGA [Malc #30 mod 12] (puzzle: Brourd's mod of Exclusion 4)”, the “apparent KD of MS2 coat protein” value was found to be 14.1 nM under setting [1], 16.1 nM under setting [2] and 13.3 nM under setting [3].

Take “CCGAUGUCAGGAUAUCGUGCAUACAACGAAAGUUCUAUGUGCGAGAAGGGACAUGAGGAUCACCCAUGUUACGG [Omei Ex4 A2] (Eterna round: R97, puzzle: Exclusion 4)”: the “apparent KD of MS2 coat protein” value reads like this: (input ligand: FMN 200 uM) 131 nM; (input ligand: none) 465 nM.

For “UUAGGCUCUGGUUCGUAUUACAUGAGGAUCACCCAUGUGGCCAAGUGAGUUGGGCCGGUCAUGAUUUUGCUCGUUAU [Eternabot (L2) Solution 13] (Eterna round: R97, puzzle: Sensor, turn-off variant 1)”, the “apparent KD of MS2 coat protein” value is, setting by setting: (input ligand: FMN 200 uM) 48.3 nM; (input ligand: none) 59.4 nM.

As for “GAGAAGUGAGGAUAUACGAUAAGGAUGAAAGGAAGGAAUGAGUAGAAGGCACAUGAGGAUCACCCAUGUAGAGU [JR_Exclu4_Sub079] (puzzle: Exclusion 4)”, the “apparent KD of MS2 coat protein” value by setting is: under setting [1], 24.1 nM; under setting [2], 25.1 nM; under setting [3], 26.3 nM.

As for “ACAUGUCAUCGAGGAUAUUGUACACAUGAGGAUCACCCAUGUACUCGGUUGCUCUAGCAUGAGUUCGAGAAGGCGAUGUACAUU [Ex NG2 #81] (Eterna round: R96, puzzle: Exclusion NG 2)”, the “apparent KD of MS2 coat protein” value is, setting by setting: (input ligand: FMN 200 uM) 178 nM; under setting [4], 28.9 nM; (input ligand: none) 38.4 nM.
